{"source": "the supplement of paper PMC9112550", "about": "“Optimization of the antimicrobial peptide Bac7 by deep mutational scanning” (BMC Biology, 2022);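 note: peptides expressed intracellularly from a pBAD plasmid library in pooled LB shake-flask culture, induced with 0.3% L-arabinose, DNA abundance read by NGS, three biological replicates, DESeq2 with apeglm shrinkage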", "data": [{"test_system": "Escherichia coli TOP10", "experiment": "shrunken log2 fold change of peptide-encoding DNA abundance (4.5 h post-induction vs induction); higher = less antimicrobial activity (less host growth inhibition)", "conditions": "time post-induction: 4.5 h; library: site-saturation at positions 5, 18, 19, 20", "values": [{"sequence": "RRIRQRPPRLPRPRPRPRAAPRP", "shrunken log2 fold change": 0.506}, {"sequence": "RRIRSRPPRLPRPRPRPWGRPRP", "shrunken log2 fold change": 0.196}, {"sequence": "RRIRLRPPRLPRPRPRPTNGPRP", "shrunken log2 fold change": 0.129}, {"sequence": "RRIRTRPPRLPRPRPRPPLHPRP", "shrunken log2 fold change": 0.0532}, {"sequence": "RRIRKRPPRLPRPRPRPPNAPRP", "shrunken log2 fold change": 0.711}, {"sequence": "RRIRPRPPRLPRPRPRPRECPRP", "shrunken log2 fold change": 0.378}, {"sequence": "RRIRNRPPRLPRPRPRPECVPRP", "shrunken log2 fold change": -0.127}, {"sequence": "RRIRARPPRLPRPRPRPHLRPRP", "shrunken log2 fold change": 0.325}, {"sequence": "RRIRCRPPRLPRPRPRPCQFPRP", "shrunken log2 fold change": -0.0777}, {"sequence": "RRIRLRPPRLPRPRPRPQEDPRP", "shrunken log2 fold change": -0.0336}, {"sequence": "RRIRTRPPRLPRPRPRPVRVPRP", "shrunken log2 fold change": 0.229}, {"sequence": "RRIRIRPPRLPRPRPRPFWKPRP", "shrunken log2 fold change": 0.0187}, {"sequence": "RRIRGRPPRLPRPRPRPPAPPRP", "shrunken log2 fold change": 1.6}, {"sequence": "RRIRPRPPRLPRPRPRPKASPRP", "shrunken log2 fold change": 0.105}, {"sequence": "RRIRQRPPRLPRPRPRPKFYPRP", "shrunken log2 fold change": -0.206}, {"sequence": "RRIRNRPPRLPRPRPRPSSVPRP", "shrunken log2 fold change": 0.066}, {"sequence": "RRIRVRPPRLPRPRPRPNIPPRP", "shrunken log2 fold change": -0.463}, {"sequence": "RRIRKRPPRLPRPRPRPYWSPRP", "shrunken log2 fold change": -0.153}, {"sequence": "RRIRYRPPRLPRPRPRPPKYPRP", "shrunken log2 fold change": -0.97}, {"sequence": "RRIRQRPPRLPRPRPRPGLHPRP", "shrunken log2 fold change": -0.111}, {"sequence": "RRIRTRPPRLPRPRPRPHVLPRP", "shrunken log2 fold change": -0.193}, {"sequence": "RRIRTRPPRLPRPRPRPTFMPRP", "shrunken log2 fold change": -0.191}, {"sequence": "RRIRPRPPRLPRPRPRPTCTPRP", "shrunken log2 fold change": 0.104}, {"sequence": "RRIRGRPPRLPRPRPRPICRPRP", "shrunken log2 fold change": -0.0289}, {"sequence": "RRIRFRPPRLPRPRPRPAQVPRP", "shrunken log2 fold change": -0.0516}, {"sequence": "RRIRVRPPRLPRPRPRPGHMPRP", "shrunken log2 fold change": 0.0482}, {"sequence": "RRIRMRPPRLPRPRPRPMVLPRP", "shrunken log2 fold change": -0.0251}, {"sequence": "RRIRGRPPRLPRPRPRPLFMPRP", "shrunken log2 fold change": 0.223}, {"sequence": "RRIRFRPPRLPRPRPRPFYFPRP", "shrunken log2 fold change": -0.681}, {"sequence": "RRIRLRPPRLPRPRPRPHRYPRP", "shrunken log2 fold change": 0.00601}, {"sequence": "RRIRHRPPRLPRPRPRPETGPRP", "shrunken log2 fold change": -0.0213}, {"sequence": "RRIRARPPRLPRPRPRPTMFPRP", "shrunken log2 fold change": 0.121}, {"sequence": "RRIRERPPRLPRPRPRPFWAPRP", "shrunken log2 fold change": 0.084}, {"sequence": "RRIRIRPPRLPRPRPRPLTKPRP", "shrunken log2 fold change": -0.94}, {"sequence": "RRIRSRPPRLPRPRPRPIDFPRP", "shrunken log2 fold change": -0.0652}, {"sequence": "RRIRCRPPRLPRPRPRPFCGPRP", "shrunken log2 fold change": 0.011}, {"sequence": "RRIRPRPPRLPRPRPRPHERPRP", "shrunken log2 fold change": 0.198}, {"sequence": "RRIRQRPPRLPRPRPRPNPIPRP", "shrunken log2 fold change": 0.0989}, {"sequence": "RRIRGRPPRLPRPRPRPEQFPRP", "shrunken log2 fold change": 0.846}, {"sequence": "RRIRERPPRLPRPRPRPYGHPRP", "shrunken log2 fold change": -0.136}, {"sequence": "RRIRQRPPRLPRPRPRPYTCPRP", "shrunken log2 fold change": 0.0526}, {"sequence": "RRIRDRPPRLPRPRPRPVKLPRP", "shrunken log2 fold change": -0.896}, {"sequence": "RRIRVRPPRLPRPRPRPGKKPRP", "shrunken log2 fold change": 0.0628}, {"sequence": "RRIRGRPPRLPRPRPRPGYKPRP", "shrunken log2 fold change": 0.191}, {"sequence": "RRIRTRPPRLPRPRPRPHLDPRP", "shrunken log2 fold change": -0.175}, {"sequence": "RRIRHRPPRLPRPRPRPGLAPRP", "shrunken log2 fold change": 0.366}, {"sequence": "RRIRDRPPRLPRPRPRPRAYPRP", "shrunken log2 fold change": -0.212}, {"sequence": "RRIRTRPPRLPRPRPRPKEEPRP", "shrunken log2 fold change": 0.00448}, {"sequence": "RRIRLRPPRLPRPRPRPASTPRP", "shrunken log2 fold change": 0.0489}, {"sequence": "RRIRIRPPRLPRPRPRPEFSPRP", "shrunken log2 fold change": 0.00834}, {"sequence": "RRIRMRPPRLPRPRPRPWQIPRP", "shrunken log2 fold change": -0.224}, {"sequence": "RRIRGRPPRLPRPRPRPWMCPRP", "shrunken log2 fold change": -0.13}, {"sequence": "RRIRCRPPRLPRPRPRPRHGPRP", "shrunken log2 fold change": 0.116}, {"sequence": "RRIRRRPPRLPRPRPRPTQQPRP", "shrunken log2 fold change": 0.707}, {"sequence": "RRIRQRPPRLPRPRPRPTSNPRP", "shrunken log2 fold change": -0.64}, {"sequence": "RRIRDRPPRLPRPRPRPQGDPRP", "shrunken log2 fold change": 0.0878}, {"sequence": "RRIRYRPPRLPRPRPRPMMQPRP", "shrunken log2 fold change": -1.94}, {"sequence": "RRIRHRPPRLPRPRPRPEFRPRP", "shrunken log2 fold change": 0.00953}, {"sequence": "RRIRNRPPRLPRPRPRPWTGPRP", "shrunken log2 fold change": -0.0655}, {"sequence": "RRIRMRPPRLPRPRPRPAVYPRP", "shrunken log2 fold change": 0.265}, {"sequence": "RRIRTRPPRLPRPRPRPSDFPRP", "shrunken log2 fold change": -0.704}, {"sequence": "RRIRMRPPRLPRPRPRPSNQPRP", "shrunken log2 fold change": -0.0365}, {"sequence": "RRIRERPPRLPRPRPRPTICPRP", "shrunken log2 fold change": -0.342}, {"sequence": "RRIRRRPPRLPRPRPRPAGQPRP", "shrunken log2 fold change": 1.41}, {"sequence": "RRIRHRPPRLPRPRPRPRITPRP", "shrunken log2 fold change": -0.0394}, {"sequence": "RRIRVRPPRLPRPRPRPFMDPRP", "shrunken log2 fold change": -0.36}, {"sequence": "RRIRKRPPRLPRPRPRPDDCPRP", "shrunken log2 fold change": 0.149}, {"sequence": "RRIRYRPPRLPRPRPRPDHMPRP", "shrunken log2 fold change": -0.552}, {"sequence": "RRIRWRPPRLPRPRPRPRINPRP", "shrunken log2 fold change": 0.0839}, {"sequence": "RRIRYRPPRLPRPRPRPNCHPRP", "shrunken log2 fold change": -0.507}, {"sequence": "RRIRIRPPRLPRPRPRPPTRPRP", "shrunken log2 fold change": 0.251}, {"sequence": "RRIRRRPPRLPRPRPRPLRWPRP", "shrunken log2 fold change": 0.732}, {"sequence": "RRIRYRPPRLPRPRPRPMSCPRP", "shrunken log2 fold change": -0.115}, {"sequence": "RRIRARPPRLPRPRPRPDQKPRP", "shrunken log2 fold change": 0.442}, {"sequence": "RRIRCRPPRLPRPRPRPPEDPRP", "shrunken log2 fold change": 0.754}, {"sequence": "RRIRMRPPRLPRPRPRPMNPPRP", "shrunken log2 fold change": 0.12}, {"sequence": "RRIRYRPPRLPRPRPRPMHMPRP", "shrunken log2 fold change": -0.113}, {"sequence": "RRIRKRPPRLPRPRPRPNSEPRP", "shrunken log2 fold change": 2.18}, {"sequence": "RRIRNRPPRLPRPRPRPHYAPRP", "shrunken log2 fold change": -0.0337}, {"sequence": "RRIRERPPRLPRPRPRPWMCPRP", "shrunken log2 fold change": -0.11}, {"sequence": "RRIRGRPPRLPRPRPRPADRPRP", "shrunken log2 fold change": 1.07}, {"sequence": "RRIRIRPPRLPRPRPRPFDEPRP", "shrunken log2 fold change": -0.288}, {"sequence": "RRIRYRPPRLPRPRPRPLVIPRP", "shrunken log2 fold change": -0.782}, {"sequence": "RRIRQRPPRLPRPRPRPQWMPRP", "shrunken log2 fold change": -0.494}, {"sequence": "RRIRIRPPRLPRPRPRPENDPRP", "shrunken log2 fold change": -0.312}, {"sequence": "RRIRIRPPRLPRPRPRPNWPPRP", "shrunken log2 fold change": -0.146}, {"sequence": "RRIRCRPPRLPRPRPRPKYMPRP", "shrunken log2 fold change": -0.498}, {"sequence": "RRIRCRPPRLPRPRPRPKTCPRP", "shrunken log2 fold change": -0.211}, {"sequence": "RRIRIRPPRLPRPRPRPSNLPRP", "shrunken log2 fold change": -0.931}, {"sequence": "RRIRDRPPRLPRPRPRPDMIPRP", "shrunken log2 fold change": 0.0954}, {"sequence": "RRIRKRPPRLPRPRPRPPFQPRP", "shrunken log2 fold change": 0.119}, {"sequence": "RRIRIRPPRLPRPRPRPFDRPRP", "shrunken log2 fold change": 4.11}, {"sequence": "RRIRIRPPRLPRPRPRPHRKPRP", "shrunken log2 fold change": -0.551}, {"sequence": "RRIRKRPPRLPRPRPRPFPHPRP", "shrunken log2 fold change": -0.04}, {"sequence": "RRIRSRPPRLPRPRPRPANRPRP", "shrunken log2 fold change": 0.223}, {"sequence": "RRIRARPPRLPRPRPRPKWWPRP", "shrunken log2 fold change": 0.149}, {"sequence": "RRIRSRPPRLPRPRPRPPFWPRP", "shrunken log2 fold change": 0.837}, {"sequence": "RRIRKRPPRLPRPRPRPNWVPRP", "shrunken log2 fold change": -0.087}, {"sequence": "RRIRSRPPRLPRPRPRPKMPPRP", "shrunken log2 fold change": 0.0106}, {"sequence": "RRIRPRPPRLPRPRPRPACTPRP", "shrunken log2 fold change": 0.163}, {"sequence": "RRIRTRPPRLPRPRPRPVPTPRP", "shrunken log2 fold change": 3.08}, {"sequence": "RRIRCRPPRLPRPRPRPSRQPRP", "shrunken log2 fold change": 0.222}, {"sequence": "RRIRMRPPRLPRPRPRPLVTPRP", "shrunken log2 fold change": -0.107}, {"sequence": "RRIRYRPPRLPRPRPRPTRLPRP", "shrunken log2 fold change": 0.262}, {"sequence": "RRIRFRPPRLPRPRPRPFEQPRP", "shrunken log2 fold change": -0.311}, {"sequence": "RRIRIRPPRLPRPRPRPRGHPRP", "shrunken log2 fold change": -0.114}, {"sequence": "RRIRKRPPRLPRPRPRPKSHPRP", "shrunken log2 fold change": 0.0104}, {"sequence": "RRIRVRPPRLPRPRPRPSCSPRP", "shrunken log2 fold change": -0.338}, {"sequence": "RRIRTRPPRLPRPRPRPHKMPRP", "shrunken log2 fold change": -0.0381}]}]}
